# Assay results: the DeepSol protein solubility set
# Assay: soluble on expression in E. coli; label from the status in PepcDB or PDB records
row,Sequence,soluble on expression in E. coli
1,MSLTARIGVVTFPGSLDDRDTQRAIKLAGAEPVALWHKDKDLKQVDAVVLPGGFSYGDYLRAGAISRFSPVMETVIEQAKSGMPVLGICNGFQILTEAHLLPGAMLGNNHLHFICRDQKLRVENADTAWTSDYEAGQEIHIPLKNMDGRYVADERTLDMLEAEGRVAFRYVVGGAAADGYGNPNGSLRDIAGITNEAGNVVGLMPHPEHAVEPLIGTGRTDGLPFFTSILKKLVNAEGHHHHHH,soluble
2,MANLPSSSGMFSRLLANVFNTTVASRCSASGRWWPQPDRRFTTKSDEKSSLEPKNTNETDVIITQQGVKLSKSNAAPVYYKPKSTGPGYELVEHKKGEMIANYTLFEAAINKSKVPWVNYDGLTSEERTIHMAHTRAINDRKLTYIDPKTGYSVFTISHHLQKGKCCGNGCRHCAYEMINASDEIRSQKVWNGAFYV,not soluble
3,MKTEKEEAEEEPFVIRPYLKSELAHKYNPHLPLIYAMQKLRGWIRNNKELYDAMYSGGEGKNDHAYSSRQVRLIVKFLDEP,not soluble
4,MEGVDPAVEEAAFVADDVSNIIKESIDAVLQNQQYSEAKVSQWTSSCLEHCIKRLTALNKPFKYVVTCIIMQKNGAGLHTAASCWWDSTTDGSRTVRWENKSMYCICTVFGLAI,soluble
5,GMRGLIVDYAGVLDGTDEDQRRWRNLLAAAKKNGVGTVILSNDPGGLGAAPIRELETNGVVDKVLLSGELGVEKPEEAAFQAAADAIDLPMRDCVLVDDSILNVRGAVEAGLVGVYYQQFDRAVVEIVGLFGLEGEF,soluble
6,TRAFQEGSYSSNIKNAAKFYTGLIQLQNPEFGDSSSIDDALPQTDTFISASRANSNIDVILPRVESFALAAKGERSKGVMVLGVDPESENAYSHISDKLVQGEFIASGQNAVLVGGGLAQYLRLKIGDELVLYGAGYRGQTAAGLYRVAGILHFPLQQLDSQLVYMPLDTAQTLYSLDKQVTAWVLNTSNLRVLPSVIEQLKRDYGNSVAVKGWQELSPELSQQIALDKAG,not soluble
7,MGSDKIHHHHHHMSELITTGVDIGSGCIKTVVFKVNGDKVEWLGKETSRIRNRDPFQLTTETYNHMLKSAGVDAKDVAYVASTGDAENLSFATGHFYSMTTHGRGGLYLNPEARAVLDIGALNGRAIRMDGVGKVLSYKMTSQCASGSGQFLENIARYLGIAQDEIGSLSMKADDPEKVSSICAVLAETDVINMVSRGISASNILKGIHVSMAVRLAKLLKSIGAVDGIVQVTGGLALDTGLVAALNEAAEQEKVNLKAVSHPDSIYAGAIGAALWGAFRHEKLARLGQAA,not soluble
8,MGSDKIHHHHHHMKKGLVMEGGAMRGLYTAGVTDVLMKYGIKFDGAVGVSAGVTFGCNYKSLQPGRVLRYNLRYGSRPQFKSWRSWIKTGDLYGADFCYYTLPEVLDPFDTAAFARNPMDFWCVATDVETAQPAYHKLTTGKGRDVAWIRASASIPVFARPVKIGGHAYWDGGVSDSIPVRFLLDKDYDKAVVILTQPAGYQKEPSRLQPVIDRVLKKYPAVVARLRQRHLEYNACLAYIAKEEAAGHLFVFRPSQGIDVSAMEKDPNRLKAVYQVGVRGCQAAIGGLEGIFTRLSTKNGD,not soluble
9,PSLSKEAALVHEALVARGLETPLRPPVHEMDNETRKSLIAGHMTEIMQLLNLDLADDSLMETPHRIAKMYVDEIFSGLDYANFPKITLIENKMKVDEMVTVRDITLTSTSEHHFVTIDGKATVAYIPKDSVIGLSKINRIVQFFAQRPQVQERLTQQILIALQTLLGTNNVAVSIDAVHYCVKARGIRDATSATTTTSLGGLFKSSQNTRHEFLRAVRHHN,soluble
10,MSLHITTKRLLIREFEFKDWQAVYEYTSDSNVMKYIPEGVFTEEDAKAFVNKNKGDNAEKFPVILRDEDCLIGHIVFYKYFGEHTYEIGWVFNPNYQNKGYASEAAQAILEYGFKEMNLHRIIATCQPENIPSYRVMKKIGMRREGFFKKCIPKGNEWWDEYYYAILEEEWNEGHHHHHH,soluble
11,MAHHHHHHVGTGSNDDDDKAGLVEGQNYTVLANPIPQQQAGKVEVLEFFGYFCPHCAHLEPVLSKHAKSFKDDMYLRTEHVVWQKEMLTLARLAAAVDMAAADSKDVANSHIFDAMVNQKIKLQNPEVLKKWLGEQTAFDGKKVLAAYESPESQARADKMQELTETFQIDGTPTVIVGGKYKVEFADWESGMNTIDLLADKVREEQKAAQ,soluble
12,MSLTDPAPEPEPPVEGQWTALTASPDTWDETKRADISYQLLLYSFADSDGDGYGDLNGVTQKLDYLNQLGVKALWLSPIHPCMSYHGYDVTDYTKVNPQLGTESDFDRLVTEAHNRGIKIYLDYVMNHTGTAHPWFTEASSSSESPYRNYYSFSEDPKTDIAAGKIAMITQEGAAGYNAAEWFQVSDETAAVKGLLKFTLDWSNAPSPILVVSTGTKADEDNPDTGTDNAKYLYYGEDICKKFYDKGNNIYELTVDFESTWGLLIRTSNASFWPSGTKYGASSSSEKLALNKDFKLTNAGNPANIMFDSQQITYFHSHFCTDWFADLNYGPVDQAGESPAYQAIADAAKGWIARGVDGLRLDAVKHIYHSETSEENPRFLKMFYEDMNAYYKQKGHTDDFYMIGEVLSEYDKVAPYYKGLPALFEFSFWYRLEWGINNSTGCYFAKDILSYQQKYANYRSDYIEATKLSNHDEDRTSSKLGKSADKCKLAAAVLLTSAGHPYIYYGEELGLYGTKDNGDEYVRSPMLWGDSYTTNYTDKTDATVSKNVKTVADQQADTHSLLNIYFSLTRLRNTYPALAEGNMTKHSVYNEGHHHHHH,not soluble
13,MGSDKIHHHHHHMLDIHWLKTFVTLAEHKHFGKAATALHMTQPNVSLHIKQLEQSTRVKLIDRNPFRLTQAGFRLLESSQKTLMELQICQADLNAINDLSQGTLTIAASDIISRLLLIQPFQLFKAEFPGIDFSLLNTTSSQASELVKNAEADLGFVIAQKESQPLHFTELQQIKWCAIGDNLQQWQQANLSVDTPLAEQPTLILLGHDTRTRELLDPALPSLNLPNYRIMEVGSVDAQIDWAEAGFGVAIVPEFSVYTKANLTTKVTPLPQFPTTSLGYIVRQNQILSKAIKQLLYWVNQEIIRSQR,not soluble
14,MRKVRIANEQTEESDIIKIVHLSDIHFSEAYYMPEIADSMLQIINESSPDIVIITGDLTENGFAAEYNGAKNFIDKIECKNKVIVPGNHDSKNAGYLFFEDIFKARSSSGYFGDVTVIGLDSSQPELDDGHIGRENYGWIESTFSTGSFKVFALHHHLIPIPKTGRGNNVLVDAGDVLELLDRSGVNLVLCGHWHIPWVWRLNDMFIISAGTVCSSKIRGKTSQCYNLIELETPESECTRWHLRITRVFSSGIKELVVDNIV,not soluble
15,MSLALYLGNKRMNDMYYTIGQVAKMQHLTISQIRYYDKQGLFPFLQRNEKGDRIFNEEALKYLEMILCLKNTGMPIQKIKQFIDWSMEGDSTILHRLKLMKQQEANVLQLIQDTEKNLKKIQQKIAKYEDEISSANATTKEGHHHHHH,soluble
16,MSLGRAGRGIDSAVGILLCGSEDRAIHKFFRESAFPAEAQIHEILNVLSVNDGLTLRGIEQRTNLRYGQIEKALKLLVAENPSPVVYTEKLWRRTIVSFSPDHERINHLMNQRKSELADVESYITTKECKMQFLRRALDEPGAEHCGKCSSCLQHPLLSPDIDSGLLHAANLFIKHADLSLNLNKQVAAGAFTQYGFKGNLPASLQGSTGRILSRWGYSGWGKQVAQEKKTGRFSDELVEACAEMVRQRWNPHPEPTWVCCVPSLKHLDLVPDFESTSTWFLILPGDWRRNLAYLLLMPLKKSWTIHRRKCSKTVSTSVKISTGREGHHHHHH,not soluble
17,MSLTDLDRVGLPVFQAVRPMGRSLSVSQGKGMTSMAARVSAMMEAVEIWHAEQDLPTTLRATIRSLGTRRAMDPNQLLMPGRDKVCEDLPIVWCPSLNLLDGADVLVPRDAANLDFTRAPDPPMLARSTTGLAGGNTRDEARASAIAEVIERACQREFQRLPPASRAQRRLDPTCLASAHRGLADPIERIRSAGLHLDIFDMTNRFDVPAIRAVIYETTAGKPVAWPCLGHGAHLDPVTAVVRALTEAAQARLTGISGNRDDISPGHYAGADMSNWVLRAMNGMDMSGTRRGLRHHDASGDSPAADVAAMIARITAHDADPLLEVDLSRPEIGVPVVKIIAPRIAYLASREGHHHHHH,not soluble
18,MHTGCCTTKFDTEVLIIGNGPAGIALSSFLSGMHPFYDATHPHENVTVHEKLLANHDFSLIDQDLSWSSNLTELSQSGRPLSVLYDMLVRPGADMGSDAPGCIQWELNRRREIPHMVIGETKIGGSWNEYDAEMLTVSFSDWMDMPGFTMEQWLGGRPLVKRLPSVAIATYLKKYVERLRLRKKFHQYFVVNSIKKIGDVWVTSGKRSTDGRSFVIRSKQVVVACGKTSPRKLQLPNEEHCSSNIVYDVRALKERLDATKKTVIDEDENYDTPSTSTCSPVIVVGDGVSSVDCVRHCLERDIPVVHVIRRTLRELRNVMLSRLSPIHYSEYTDIYRMMIGRSVHKNYQRVLDASITSVSKIHVEITTGSNREIIEMPYSTVAVCIGRESHFSTVFENAHTFLDYQSEQDETLFAVGAYAGDHFVRFLVGGCLRVAQHITGAANNNNVTAKLLPIC,not soluble
19,MVAGFTVHSGPHHVPHRDMTHHSRPPGHAPRVTILMPVYNGEKYLAAAMESILDQTFRDFILLIIDDGSSDSSLAIARSFGDPRVQVERNPKNLGLVKTLNRGLDLVQTEFVARMDCDDIALPDRLEKQIAFLDENPDIGMCGTAYELFHESLRQTIRPPCRHEEIVYGLLDDNVFLHSSVIVRMEVLNRHGLRYREDYRLAEDYELWARLARYTHIGNLPQVLVRYRSHPENVSNTNKGEQIATRDRVRLEHLESFGLAPAADQKTLHIDLFSLAFQGSPDQLADARRWLEALARAVSTRCGLPLGRLHRDFALLWYSACGRSAHHGLTVLFSYLKSAMAWKGPKSYILKLLFRCLMRDPIPAVTK,not soluble
20,PSVYDAAAQLTADVKKDLRDSWKVWGSDKKGNGVALMTTLFADNQETIGYFKRLGDVSQGMANDKLRGHSITLMYALQNFIDQLDNPDDLVCVVEKFAVNHITRKISAAEFGKINGPIKKVLASKNFGDKYANAWAKLVAVVQAAL,soluble
21,MGTVMDVLKGDNRFSMLVAAIQSAGLTETLNREGVYTVFAPTNEAFRALPPRERSRLLGDAKELANILKYHIGDEILVSGGIGALVRLKSLQGDKLEVSLKNNVVSVNKEPVAEPDIMATNGVVHVITNVLQP,soluble
22,MNPGGAEVSVVIPAWNAEATLGRALASVRAQTLAPRQVIVVNDGSSDATPEIAARMATKTFPVTVIDRTGRGSGPAAARNAGIAAAGEPFVAFLDADDVWLPDKLARQMAALRASPDAVLCCCDAQWVGEDAPARTAHPTIYEDRPIKGGAEAWKEILLDCYVGTPCVVARRAALIEAGGFDERLVVGEDQDLWIRLALQGPVIALPEVLVRYGLSADSHMARHRALAASLWLPHFEALVSGLGARLSAGERDAILRARLWRMARSVYLDGRKDLGLSLMARAVAHGLPRRARMVFLARARLRSALGRNGLEHHHHHH,not soluble
